± gives the standard deviation of the averaged measurements.
test system: Saccharomyces cerevisiae; assay: protein stability index of tFT-peptide fusion (C-terminal peptide) (PSI (0-1 scale)); higher = more stable (slower turnover); conditions: genetic background: wild type; temperature: 30 C
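Note: PSI is a weighted mean of sequencing reads over stability bins, variants kept only with over 10 reads, mCherry proximal and sfGFP distal, peptide attached via GGGS linker.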

Point of comparison: YSAPFRIPLSLR, protein stability index 0.631 ± 0.034. Against it:
- YRRDVGAARVLP — within error, 0.67 ± 0.021
- YRTSLSMANHLL — within error, 0.611 ± 0.069
- YSCDEDPVTVRG — within error, 0.699 ± 0.036
- YTPSGHKRRMYV — within error, 0.642 ± 0.064
- YTPSPHVRAPRH — higher, 0.737 ± 0.025
- YTPVKDNDVKVY — within error, 0.722 ± 0.077
- YTRAGNDKIFWE — higher, 0.809 ± 0.0096
- YTRGVENTDMAP — higher, 0.768 ± 0.022
- YTYPINPLDQTR — higher, 0.7196 ± 0.0027
- YVCLATLSSFSF — within error, 0.644 ± 0.048
- YVCRCGCLVKSV — within error, 0.656 ± 0.043
- YVEVLLFTSVGF — within error, 0.569 ± 0.07
- YVIAMVYGAPWS — within error, 0.60667 ± 0.00018
- YVKSIRRRDYIW — higher, 0.694 ± 0.0046
- YWGGWWGGWEIG — higher, 0.689 ± 0.014
- YYIITRWPNTTR — within error, 0.847 ± 0.2
- YYLQPTCLCFWE — higher, 0.698 ± 0.0041

test system: Saccharomyces cerevisiae; assay: as above; conditions: genetic background: cdc34-1; temperature: 37 C
Experimental: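 MPS profiling in S. cerevisiae of the tFT-X12 degron library: putative degron peptides plus stable controls, 12 aa, fused to the C-terminus of a sfGFP-mCherry timer. Cells are FACS-sorted into 8 mCherry/sfGFP bins and deep-sequenced. PSI runs from 0 (unstable) to 1 (stable). Backgrounds are wild type, das1Δ and doa10Δ at 30 °C, and wild type, das1Δ, cdc34-1 and cdc53-1 at 37 °C; 2-3 technical replicates each.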

Point of comparison: AYACSILRCKSS, protein stability index 0.624 ± 0.015. Against it:
- AEIVCLTDGLLF — higher, 0.715 ± 0.012
- AFFLLVSLLVSP — lower, 0.0637 ± 0.025
- AFPSSVILMVFS — lower, 0.323 ± 0.036
- AFVVYSGSHGLV — higher, 0.686 ± 0.0094
- AGALAVALPCIC — lower, 0.493 ± 0.011
- AGGGGRFWVCVG — within error, 0.656 ± 0.027
- ALLVLTVSYVFS — lower, 0.045 ± 0.011
- ALVWYSLSIIVN — lower, 0.0193 ± 0.0028
- APGGRGAAGPSC — within error, 0.67 ± 0.06
- APPLPFPTPPPS — higher, 0.68 ± 0.031
- ARALLGVGWYWV — higher, 0.654 ± 0.015
- ARCKRSLSGGIG — lower, 0.489 ± 0.034
- ARSGGYLMVVLV — lower, 0.56 ± 0.033
- ASFVCWSVCALG — lower, 0.508 ± 0.026
- ASGFLVIPLWVF — lower, 0.41 ± 0.0072
- ASICAFFCWFLV — lower, 0.527 ± 0.035
- ASSFYVDLVLVS — lower, 0.457 ± 0.014
- AVTMSYQCGIFI — within error, 0.646 ± 0.029
- CAGRQGRERGHT — higher, 0.694 ± 0.03
- CALFLLSSPSPT — higher, 0.713 ± 0.061
- CASIVDGFAFRF — higher, 0.752 ± 0.0086
- CFCPILFPRCLA — lower, 0.476 ± 0.048
- CFGFMFLLLFDV — lower, 0.3073 ± 0.0011
- CFRRPLLRVVLT — lower, 0.502 ± 0.014
- CFSYLLIVLLFP — lower, 0.168 ± 0.019
- CFVPFFLPLCAF — lower, 0.0255 ± 0.0085
- CGILACSVCTFF — within error, 0.547 ± 0.071
- CGLLWFYSFFLF — lower, 0.502 ± 0.019
- CGLYNQFCLFLY — lower, 0.561 ± 0.04
- CGVWVVVASAYR — lower, 0.43 ± 0.019
- CGWVRRARVKMM — within error, 0.622 ± 0.073
- CHFLLPFLFTCA — lower, 0.225 ± 0.027
- FGGVFCVMARLV — within error, 0.602 ± 0.14
